Measured values taken from US20240417484A1, “ANTIGEN-BINDING POLYPEPTIDES AGAINST CD73” (UNIVERSITÄTSKLINIKUM HAMBURG-EPPENDORF, priority 2021, published 2024).
Positions count from the first letter of the chain named.

T1: native CD73 on the cell surface of peripheral blood leukocytes (PBMCs) (Homo sapiens, UniProt P21589)
T1 construct: endogenous in cells; host or cells: human PBMCs (B and T lymphocytes)
T1 sequence (P21589 27-549): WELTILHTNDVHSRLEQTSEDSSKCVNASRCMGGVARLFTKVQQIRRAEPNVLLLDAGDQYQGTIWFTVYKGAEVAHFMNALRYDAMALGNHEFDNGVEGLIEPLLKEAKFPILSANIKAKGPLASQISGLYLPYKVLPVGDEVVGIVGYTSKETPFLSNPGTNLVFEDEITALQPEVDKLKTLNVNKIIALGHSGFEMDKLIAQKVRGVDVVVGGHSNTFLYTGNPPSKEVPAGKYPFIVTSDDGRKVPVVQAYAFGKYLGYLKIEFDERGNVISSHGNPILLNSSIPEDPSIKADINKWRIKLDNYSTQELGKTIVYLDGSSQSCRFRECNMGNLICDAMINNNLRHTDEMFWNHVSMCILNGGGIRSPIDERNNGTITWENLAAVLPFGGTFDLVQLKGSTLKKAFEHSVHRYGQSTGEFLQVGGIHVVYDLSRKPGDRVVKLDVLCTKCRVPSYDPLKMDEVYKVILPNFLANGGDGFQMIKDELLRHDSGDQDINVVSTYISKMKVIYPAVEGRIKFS

T2: human CD73 (Homo sapiens, UniProt P21589)
T2 construct: expressed in transfected cells; stably transfected in method 5.1)
T2 sequence (P21589 27-549): T1 sequence (P21589 27-549)

T3: soluble human CD73 (Homo sapiens, UniProt P21589)
T3 construct: The ectodomain of CD73 (aa 27-549) was expressed as a recombinant protein with a C-terminal His6× tag; His6 (C); made in house; host or cells: transiently transfected HEK cells
T3 sequence (P21589 27-549): T1 sequence (P21589 27-549)

T4: CD73-expressing human AML-OCI3 cells (Homo sapiens, UniProt P21589)
T4 construct: CD73-expressing human AML-OCI3 cells (AML cell line); endogenous in cells; host or cells: OCI-AML3 human AML cell line
T4 sequence (P21589 27-549): T1 sequence (P21589 27-549)

B1: SB142: CD73-specific alpaca VHH clone, family 2 in Tables 1-2, SEQ ID NO:73; tested as rabbit IgG hcAb (antibody)
heavy: QVQLVESGGGLVQPGGSLRLSCAASGFTFINYHMSWLRQAPGKGLEWVSEIHSRGDITSYTNSVKGRFTISRDNAKNTLYLQMNSLKFDDTAVYYCARSRDLFGEGEYDYWGRGTQVTVSS
modifications: left off: a dimerising Fc or GST
notes: tested as rabbit IgG hcAb
B2: SB116-188-Alb: biparatopic SB116-188-Alb trimers, anti-CD73 nanobody heterotrimer (protein)
chain (part 1 of 2): QVKLQESGGGRVQTGGSLRLSCAASGISFSITTMYWYRQAPGEQRQLVALITDRGNTYYVDSVKGRFTISRDDSKNTVYLQMNDLKPEDTAVYFCNSIPGNDWGQGTQVTVSS
chain (part 2 of 2): B1 heavy with P14A, G44E, L45R, W47F, S49A, L79V, F88P, D89E, G104N
modifications: left off: small tags and cut ends; another chain or arm of the molecule
notes: biparatopic SB116-188-Alb trimers, anti-CD73 nanobody heterotrimer

Experiments:
[1] = target: T1, native CD73 on the cell surface of peripheral blood leukocytes (PBMCs); experiment: Flow cytometry binding of hcAbs to native CD73 on blood leukocytes; conditions: lymphocyte gate, co-stained for CD3 and CD19
Description: Purified hcAbs were analysed for binding to native CD73 on the cell surface of peripheral blood leukocytes (PBMCs) by flow cytometry. To this end purified human PBMCs were incubated for 30 min at RT with 10 μl of rabbit hcAb-containing HEK-6E cell supernatants and bound antibodies were detected with a FITC conjugated anti rabbit IgG secondary antibody. To distinguish between B lymphocytes most of which express high levels of cell surface CD73, and T lymphocytes a subset of which express moderate levels of cell surface CD73, cells were co-stained with PE-conjugated mouse anti-human CD3 mAb (UCHT1) and a PerCP/Cy5.5-conjugated mouse anti-human CD19 mAb (HIB19). After washing the cells, cells were analyzed by flow cytometry. A hcAb binding only to murine CD39 (SB30) was used as a negative control. […] Gating was performed on lymphocytes on the basis of forward and side scattered light.

[2] = target: T2, human CD73; experiment: Flow cytometry binding of rabbit IgG hcAbs to human CD73-transfected HEK cells; parameters: key: binding to human (h) and mouse (m) CD73; binding to human (h) and mouse (m) CD73; conditions: family representative clone; h = binds human CD73, m = binds mouse CD73
Description: HEK cells were co-transfected with expression vectors for green fluorescent protein (GFP) and human CD73, mouse CD73, and a control cell surface protein (CD39). 48 h after transfection, cells were incubated with HEK cell supernatants containing the indicated rabbit IgG hcAbs. Bound antibodies were detected with PE-conjugated anti rabbit IgG secondary antibody.
• 5.1 Untransfected HEK293 cells and HEK293 cells stably transfected with human or mouse CD73 were incubated for 30 min with HEK-6E cell supernatants containing rabbit IgG hcAbs (diluted 1:10 in PBS/0.1% BSA). Following washing with PBS/0.1% BSA, bound antibodies were detected with PE-conjugated goat anti-rabbit IgG polyclonal antibody (711-116-152 Dianova, Hamburg). • 5.2 For dissociation analyses, two separate aliquots of CD73-transfected cells were incubated either with Cell Proliferation Dye eFluor 450 (eBioscience) or with hcAbs for 20 min at RT. Cells were washed four times, mixed at a 1:1 ratio and further incubated at RT for 120 min before staining of bound antibodies with PE-conjugated goat anti-rabbit IgG polyclonal antibody. The dissociation of hcAbs from the target cells and association with the eFluor 450 labeled cells was analyzed by flow cytometry using the FlowJo software (Treestar). • 5.3 For epitope analyses, cells were preincubated with excess human IgG hcAbs (10 μl HEK-6E cell supernatant/100 μl PBS/0.1% BSA) for 30 min at RT before addition of Nb-rabbit IgG hcAbs (1 μl HEK-6E cell supernatant/100 μl PBS/0.1% BSA) and further incubation for 20 min at RT and staining with PE-conjugated anti-rabbit polyclonal antibody (711-116-152 Dianova, Hamburg). Cells were washed and analyzed by flow cytometry on a BD-FACS Canto. Data were analyzed using the FlowJo software (Treestar).
The binding specificities of the purified hcAbs were determined by flow cytometry using HEK cells transiently co-transfected with expression vectors for GFP and either mouse CD73, human CD73 or a control protein (CD39). 1×10^6 cells were incubated with 10 μl of the Nb-rbIgG hcAb containing HEK-6E cell supernatants for 30 min at 4° C. After washing, the cells were incubated with PE-conjugated anti-rabbit IgG polyclonal antibody (711-116-152 Dianova, Hamburg) and washed twice. The cells were resuspended in PBS and analyzed by flow cytometry on FACS Canto or FACS Celesta (BD Biosciences, Heidelberg). Data evaluation was conducted using the software FlowJo (Treestar, Stanford, US).

[3] = target: T3, soluble human CD73; experiment: Off-rates of soluble CD73 from immobilized Nb-rbIgG hcAb on Octet BLI; format: binding; conditions: soluble human CD73 ectodomain 200 ng/μl as analyte; Nb-rbIgG hcAb immobilized on protein A biosensor
Description: The binding off-rate constants of bivalent hcAbs to human and mouse CD73 protein were determined by […] kinetic analysis on Octet RED96 (ForteBio). Immobilization of rabbit IgG hcAbs on the protein A-biosensor surface was done in HEK-6E cell supernatant, and regeneration of analytes was done with 100 mM Glycin pH=2.5. Recombinant mouse or human CD73 ectodomain was used as analytes and tested at a saturating dose of 200 ng/μl. Sensorgrams were fitted using least square regression in association than dissociation Model in Prism8 (Graphpad).

[4] = target: T3, soluble human CD73; experiment: AMP degradation by soluble CD73, luminometric AMPglow assay; format: biochemical; conditions: CD73 present as soluble enzyme; compared with dimeric SB116 or SB188 Fc constructs
Description: (§1) Soluble recombinant human CD73 or CD73-expressing human […] cells were incubated with CD73-specific dimeric clones SB116-rbFc, SB188-rbFc, biparatopic SB116-188-Alb trimers or with non-binding L-10e-rbFc clone (control). AMP was added and AMP degradation was measured using the luminometric AMPglow assay. Data analyses were performed using Prism (Graphpad).

[5] = target: T4, CD73-expressing human AML-OCI3 cells; experiment: AMP degradation by cell bound CD73, luminometric AMPglow assay; format: cell-based; conditions: CD73 expressed on the cell surface of OCI-AML3 cells; compared with dimeric SB116 or SB188 Fc constructs
Description: AMP was added and AMP degradation was measured using the luminometric AMPglow assay. Data analyses were performed using Prism (Graphpad).
as §1

Molecule | staining of native CD73 on human PBMCs [1] | specificity [2] | Kdis [3] [s⁻¹] | blockade of CD73-mediated AMP degradation [4] | blockade of CD73-mediated AMP degradation [5]
B1 | on most B cells and on a subset of T cells | h | 0.00036 |  | 
B2 |  |  |  | enhanced blockade of CD73-mediated AMP degradation when compared to dimeric SB116 or SB188 Fc constructs | less potent compared to dimeric SB116 or SB188 Fc constructs
